Legend:
MS2 coat protein [1] = experiment: apparent KD of MS2 coat protein, switch ON state; designed switch direction (-1 OFF switch, 1 ON switch): -1; higher = weaker reporter binding; conditions: FMN input: 0 or 200 uM; Eterna round: R93 (includes R88 designs)
Procedure, shortened: (§1)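 Designed RNA switches were made by on-chip transcription from Illumina sequencing clusters and then titrated with SNAP-549-labelled MS2 coat protein. Twofold steps ran from 0.7 or 1.5 nM to 3 µM, each lasting 0.8–1.5 h early and 10–20 min late, in 100 mM Tris-HCl pH 7.5, 80 mM KCl, 4 mM MgCl2, without or with constant ligand. Apparent KD is the per-design median of normalised cluster binding-curve fits.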

MS2 coat protein [2] = experiment: apparent KD of MS2 coat protein, switch OFF state (with FMN for OFF switches, without FMN for ON switches); designed switch direction (-1 OFF switch, 1 ON switch): -1; higher = weaker reporter binding; conditions: FMN input: 0 or 200 uM; Eterna round: R93 (includes R88 designs)
Procedure, shortened: as §1

## AAAAAACAUGAGGAUCACCCAUGUGAGGAUAUGAAAAAACAAAAAAAAAAGUAAACAAUCAGAAGGCACAACAA [JR_Exc--1_Sub1211]
MS2 coat protein [1]
  apparent KD of MS2 coat protein: 27.3 nM
MS2 coat protein [2]
  apparent KD of MS2 coat protein: 24.4 nM

## AAAAAGGAAGGAUAUACGAACAUGUCAAAAGACGUGAAGGGACAUGAGGAUCACCCAUGUAGAAGGUCCAAAAA [JL Half Open 23]
MS2 coat protein [1]
  apparent KD of MS2 coat protein: 83.4 nM
MS2 coat protein [2]
  apparent KD of MS2 coat protein: 99.6 nM

## AAGAAGUGAGGAUAUCGAAAAGAAAAGAAAAGAAAAGAAAACGAGAAGGCACAUGAGGAUCACCCAUGUAAGAA [Setutre Darius I the Great]
MS2 coat protein [1]
  apparent KD of MS2 coat protein: 28.1 nM
MS2 coat protein [2]
  apparent KD of MS2 coat protein: 41 nM

## AGUCAUACAGGAUAUACAUGAGGAUCACCCAUGUAAAUCCUAAAAAAAUGAUCCUCAUGUAGAAGGGUAUGACA [EX3 221: Super Stable 21]
MS2 coat protein [1]
  apparent KD of MS2 coat protein: 16.8 nM
MS2 coat protein [2]
  apparent KD of MS2 coat protein: 14.4 nM

## AUCUCGUCAGGAUAUGACUACAUAAAAAAAAAAAAAUGUAGUCAGAAGGGACAUGAGGAUCACCCAUGUACCAA [HSL_Exclusion 4 64% 3]
MS2 coat protein [1]
  apparent KD of MS2 coat protein: 21.9 nM
MS2 coat protein [2]
  apparent KD of MS2 coat protein: 22.8 nM

## AACAGGACAGGAUAUACAUGAGGAUCACCCAUGUCACAACAAAGCAGCGCAACACAAAGUAGAAGGGUCAUGGA [Ruby 13]
MS2 coat protein [1]
  apparent KD of MS2 coat protein: 75.8 nM
MS2 coat protein [2]
  apparent KD of MS2 coat protein: 59.1 nM

## AAGAAGCUAGGAUAUACAUGAAAGAAAGAAAAGAAAAGAAAACAUGAGGAUCACCCAUGUAGAAGGAGCUAGAA [EteRNA is fun!]
MS2 coat protein [1]
  apparent KD of MS2 coat protein: 33.1 nM
MS2 coat protein [2]
  apparent KD of MS2 coat protein: 32.5 nM

## AAAAGUAGAGGAUAUACAUGAGGAUCACCCAUGUAGAAAGGAAGUAUAUAUAUGGCGUGUAGAAGGCUGCAUGA [Mat - Mod of Nando]
MS2 coat protein [1]
  apparent KD of MS2 coat protein: 26.7 nM
MS2 coat protein [2]
  apparent KD of MS2 coat protein: 28 nM

## AAAAUACGAGGAUAUACAUGAGGAUCACCCAUGUCAAAAAAUGACUACACAAAAGAAAGUAGAAGGCGUAAAAG [Mat - Exclusion 3 - Mayanna mod - D127]
MS2 coat protein [1]
  apparent KD of MS2 coat protein: 24 nM
MS2 coat protein [2]
  apparent KD of MS2 coat protein: 41.8 nM

## AAAAACGGAGGAUAUACAAAUUAAGGAAGAAAACACGAAAAACAUGAGGAUCACCCAUGUAGAAGGCCGGAAAA [Ex 2 #3]
MS2 coat protein [1]
  apparent KD of MS2 coat protein: 24.1 nM
MS2 coat protein [2]
  apparent KD of MS2 coat protein: 29.7 nM

## AAGAUGUCAGGAUAUGCUUGUCGUCACAAAAGUGAUGACGAGCAGAAGGGACAUGAGGAUCACCCAUGUAAAGA [JL eternac mod 3]
MS2 coat protein [1]
  apparent KD of MS2 coat protein: 148 nM
MS2 coat protein [2]
  apparent KD of MS2 coat protein: 303 nM

## AAGAACGUAGGAUAUACAAAAUAAAAGAAAAGAAAGAAAGAACAUGAGGAUCACCCAUGUAGAAGGACGAAGAA [Sekhemrekhutawy Khabaw]
MS2 coat protein [1]
  apparent KD of MS2 coat protein: 21.6 nM
MS2 coat protein [2]
  apparent KD of MS2 coat protein: 21.8 nM

## GGAUGCGAAGGAUAUACAUGAGGAUCACCCAUGUGAGAGAAAAAAGUGAGAAAGAAAAGUAGAAGGUCGUGUCG [salish99-ex3-93]
MS2 coat protein [1]
  apparent KD of MS2 coat protein: 28.8 nM
MS2 coat protein [2]
  apparent KD of MS2 coat protein: 97.2 nM

## UAAAGGCGAGGAUAUACAUGAGGAUCACCCAUGUGAAUAAAUAAUAAAAUAAAAUAAAGUAGAAGGCGCAAUAA [LROPPY Exclusion 3 - v03_deltaG=1.9 break up As]
MS2 coat protein [1]
  apparent KD of MS2 coat protein: 53.9 nM
MS2 coat protein [2]
  apparent KD of MS2 coat protein: 43.2 nM

## AUGGUAGGAGGAUAUACAUAGAUACAGAUACAUGUAGACGUACAUGAGGAUCACCCAUGUAGAAGGCCUAUAAA [Mat - Same state - Mayanna Mod - D150]
MS2 coat protein [1]
  apparent KD of MS2 coat protein: 97.9 nM
MS2 coat protein [2]
  apparent KD of MS2 coat protein: 82.3 nM

## AAGAACACAGGAUAUACAUGAGGAUCACCCAUGUAAAAGAAAGAAAAGGGAAAGAAAAGUAGAAGGGUGAAGAA [Nebkheperure Tutankhaten]
MS2 coat protein [1]
  apparent KD of MS2 coat protein: 44.7 nM
MS2 coat protein [2]
  apparent KD of MS2 coat protein: 51.3 nM

## AAUAAGUCAGGAUAUACUAAAGAAAUGAAAAGGGAUAAAGAACAUGAGGAUCACCCAUGUAGAAGGGACAAUAA [Sakir-Har]
MS2 coat protein [1]
  apparent KD of MS2 coat protein: 93.2 nM
MS2 coat protein [2]
  apparent KD of MS2 coat protein: 51.6 nM

## AAGGUACGAGGAUAUACAUAGAUACAGACACAUGUGGAUGUACAUGAGGAUCACCCAUGUAGAAGGCGUAUAUA [AJ 21]
MS2 coat protein [1]
  apparent KD of MS2 coat protein: 64 nM
MS2 coat protein [2]
  apparent KD of MS2 coat protein: 101 nM

## AAAAAGUCAGGAUAUUCGGAAGGGAAAGCGCAAACCCAACCGAAGAAGGGACAUGAGGAUCACCCAUGUAAAAA [Ecls4-III]
MS2 coat protein [1]
  apparent KD of MS2 coat protein: 49.6 nM
MS2 coat protein [2]
  apparent KD of MS2 coat protein: 42.9 nM

Reference: the supplement of paper PMC9170038
